Source: PMC8960791 (Communications Biology, 2022)

B1: CA172 (antibody, V domains shown)
VH: QVQLVESGGGLVKPGGSLRLSCAASGFTFSDYYMSWIRQAPGKGLEWVSYISSSSSYTNYADSVKGRFTISRDNAKNSLYLQMNSLRAEDTAVYYCARALRYFDWYDYWGQGTLVTVSS
VL: EIVLTQSPDFQSVTPKGKVTITCRASQSIGSSLHWYQQKPDQSPKLLIKYASQSFSGVPSRFSGSGSGTEFTLTISSLQPEDFATYYCQQLNSYSPITFGQGTRLEIK
B2: CA159 (antibody, V domains shown)
VH: QVQLVQSGAEVKKPGSSVKVSCKASGGTFSSYAISWVRQAPGQGLEWMGGIIPIFGTANYAQKFQGRVTITADESTSTAYMELSSLRSEDTAVYYCARASYYYYYMDVWGKGTTVTVSS
VL: not shown
B3: CA153 (antibody, V domains shown)
VH: EVQLVESGGGLVKPGGSLRLSCAASGFTFSSYSMNWVRQAPGKGLEWVSSISSSSSYIYYADSVKGRFTISRDNAKNSLYLQMNSLRAEDTAVYYCARLTYYYYMDVWGKGTTVTVSS
VL: not shown
B4: CA158 (antibody, V domains shown)
VH: EVQLVESGGGLVKPGGSLRLSCAASGFTFSSYSMNWVRQAPGKGLEWVSSISSSSSYIYYADSVKGRFTISRDNAKNSLYLQMNSLRAEDTAVYYCARMYQLAAIDYWGQGTLVTVSS
VL: not shown
B5: CA149 (antibody, V domains shown)
VH: EVQLVESGGGLVKPGGSLRLSCAASGFTFSSYSMNWVRQAPGKGLEWVSSISSSSSYIYYADSVKGRFTISRDNAKNSLYLQMNSLRAEDTAVYYCARCAAGFVPDAFDIWGQGTMVTVSS
VL: not shown
B6: CA171 (antibody, V domains shown)
VH: EVQLVESGGGLVQPGGSLRLSCAASGFTFSSYSMNWVRQAPGKGLEWVSYISSSSSTIYYADSVKGRFTISRDNAKNSLYLQMNSLRAEDTAVYYCARTFYSNYLDAFDIWGQGTMVTVSS
VL: EIVLTQSPDTLSMCPGERATLSCRASQSVSSYLAWYQQKPGQAPRLLIYDASNRATGIPARFSGSGSGTDFTLTISSLEPEDFAVYYCQQRSNWLSMYTFGQGTKLEIK
B7: CA166 (antibody, V domains shown)
VH: EVQLVESGGGLVKPGGSLRLSCAASGFTFSSYSMNWVRQAPGKGLEWVSSISSSSSYIYYADSVKGRFTISRDNAKNSLYLQMNSLRAEDTAVYYCARVMITFGGADYWGQGTLVTVSS
VL: DIQMTQSPSSLSASVGDRVTITCRASQNINTYLNWYQKRPGIAPKLLIYGASSLQSGVPSRFSGSGSGTDFTLTISSLQPEDFATYYCQQYHTSPLTFGGGTPVDIK
B8: CA170 (antibody, V domains shown)
VH: EVQLVESGGGLVKPGGSLRLSCAASGFTFSSYSMNWVRQAPGKGLEWVSSISSSSSYIYYADSVKGRFTISRDNAKNSLYLQMNSLRAEDTAVYYCARDRDLLDAFDIWGQGTMVTVSS
VL: SYVLTQPPSVSVAPGQTARITCGGNNIGSKSVHWYQQKPGQAPVLVVYDDSDRPSGIPERFSGSNSGNTATLTISRVEAGDEADYYCQVWDSSSDHPWVFGGGTKLTVL
B9: CA175 (antibody, V domains shown)
VH: EVQLVESGGGLVQPGGSLRLSCAASGFTFSTYPMNWVRQAPGKGLEWVSYISSSSSTIYYADCVKGRFTISRDNAKNSLYLQMNSLRDEDTAVYYCARYYIAYGMDVWGQGTTVTVSS
VL: DIQMTQSPSSMSASVGDRVTITCRASQGISNYLAWFQQKPGKAPKRLIYGASSLHRGVPSRFSGSGSGTEFTLTITSLQPEDFATYYCLQHNTYPRTFGQGTKVEIK
B10: CA146 (antibody, V domains shown)
VH: QVQLVESGGGVVQPGRSLRLSCAASGFTFSSYGMHWVRQAPGKGLEWVAVISYDGSNKYYADSVKGRFTISRDNSKNTLYLQMNSLRAEDTAVYYCAKDRYSIVGATSNGMDVWGQGTTVTVSS
VL: not shown
B11: CA168 (antibody, V domains shown)
VH: QVQLVQSGAEVKKPGSSVKVSCKASGGTFSSYAISWVRQAPGQGLEWMGGIIPIFGTANYAQKFQGRVTITADKSTSTAYMELSSLRSEDTAVYYCARALTYYDFPDYGMDVWGQGTTVTVSS
VL: QSALTQPPSASGSPGQSVTISCTGTSSDVGGYNYVSWYQQHPGKVPKLMIYEVTKRPSGVPDRFSGSKSGNTASLTVSGLQAEDEADYYCSSYAGSNNLVFGGGTKLTVL
B12: CA150 (antibody, V domains shown)
VH: QVQLVQSGAEVKKPGSSVKVSCKASGGTFSSYAISWVRQAPGQGLEWMGGIIPIFGTANYAQKFQGRVTITADESTSTAYMELSSLRSEDTAVYYCASFPNCSSTSCYYYYYMDVWGKGTTVTVSS
VL: QSALTQPASVSGSPGQSITISCTGTSSDVGGYNYVSWYQQHPGKAPKLMIYDVSNRPSGVSNRFSGSKSGNTASLTISGLQAEDEADYYCSSYTSSSTRDVVFGGGTKLTVL
B13: CA163 (antibody, V domains shown)
VH: QVQLVQSGAGASVKVSCKASGNTFTSYGISWVRQAPGQGLEWMGWIIPYNGNTNYAQKFQGRVTMTTDTSTSTAYMELRSLRSDDTAVYYCARDGEVGAFDNYYYYCGYGVIVTTAS
VL: not shown
B14: CA155 (antibody, V domains shown)
VH: QVQLVESGGGLVKPGGSLRLSCAASGFTFSDYYMSWIRQAPGKGLEWVSYISSSSSYTNYADSVKGRFTISRDNAKNSLYLQMNSLRAEDTAVYYCARGGIYYYYYMDVWGKGTTVTVSS
VL: not shown
B15: CA151 (antibody, V domains shown)
VH: RCSCRSRAPGLVKPSETLSLTCTVSGGSVSSGSYYWSWIRQPPGKGLEWIGYIYYSGSTNYNPSLKSRVTISVDTSKNQFSLKLSSVTAADTAVYYCASFTRMSPYAFDIWGQGTMVTVSS
VL: not shown
B16: CA157 (antibody, V domains shown)
VH: EVQLVESGGGLVQPGGSLRLSCAASGFTFSSYEMNWVRQAPGKGLEWVSYISSSGSTIYYADSVKGRFTISRDNAKNSLYLQMNSLRAEDTAVYYCARGYCSSTSCPFDYWGQGTLVTVSS
VL: not shown
B17: CA141 (antibody, V domains shown)
VH: EVQLVESGGGLVKPGGSLRLSCAASGFTFSSYSMNWVRQAPGKGLEWVSSISSSSSYIYYADSVKGRFTISRDNAKNSLYLQMNSLRAEDTAVYYCARASENGDDAFDIWGQGTMVTVSS
VL: EIVLTQSPATLSLSPGERATLSCRASQSVSSYLAWYQQKPGQAPRLLIYDASNRATGIPARFSGSGSGTDFTLTISSLEPEDFAVYYCQQRSNWPPYTFGQGTKLEIK
B18: CA143 (antibody, V domains shown)
VH: EVQLVESGGGLVKPGGSLRLSCAASGFTFSSYSMNWVRQAPGKGLEWVSSISSSSSYIYYADSVKGRFTISRDNAKNSLYLQMNSLRAEDTAVYYCARDSLPAGDYFDYWGQGTLVTVSS
VL: DIQLTQSPSFLSASVGDRVTITCRASQGISSYLAWYQQKPGKAPKLLIYAASTLQSGVPSRFSGSGSGTEFTLTISSLQPEDFATYYCQQLNSYPQTTFGGGTKVEIK
B19: CA144 (antibody, V domains shown)
VH: EVQLVESGGGLVKPGGSLRLSCAASGFTFSSYSMNWVRQAPGKGLEWVSSISSSSSYIYYADSVKGRFTISRDNAKNSLYLQMNSLRAEDTAVYYCARDRVEMAFHFDYWGQGTLVTVSS
VL: not shown
B20: CA169 (antibody, V domains shown)
VH: EVQLVESGGGLVKPGGSLRLSCAASGFTFSSYSMNWVRQAPGKGLEWVSSISSSSSYIYYADSVKGRFTISRDNAKNSLYLQMNSLRAEDTAVYYCASGVLLEAFDYWGQGTLVTVSS
VL: SYVLTQPPSVSVAPGQTARITCGGNNIGSKSVHWYQQKPGQAPVLVVYDDSDRPSGIPERFSGSNSGNTATLTISRVEAGDEADYYCQVWDSSSDHVVFGGGTKLTVL
B21: CA148 (antibody, V domains shown)
VH: QVQLVQSGAEVKKPGASVKVSCKASGYTFTSYGISWVRQAPGQGLEWMGWISAYNGNTNYAQKLQGRVTMTTDTSTSTAYMELRSLRSDDTAVYYCARTPGDEYYYYYYMDVWGKGTTVTVSS
VL: EIVLTQSPATLSLSPGERATLSCRASQSVSSYLAWYQQKPGQAPRLLIYDASNRATGIPARFSGSGSGTDFTLTISSLEPEDFAVYYCQQRSNWPRTFGQGTKLEIK
B22: CA173 (antibody, V domains shown)
VH: EVQLVESGGGLVKPGGSLRLSCAASGFTFSSYSMNWVRQAPGEGLEWVSSISSSSTYIYYADSVKGRFTISRDNAKNSLYLQMNSLRAEDTAVYYCARDRPAGSSSLGSGYFDLWGRGTLVTVSS
VL: not shown
B23: CA154 (antibody, V domains shown)
VH: not shown
VL: AIRMTQSPSSFSASTGDRVTITCRASQGISSYLAWYQQKPGKAPKLLIYAASTLQSGVPSRFSGSGSGTDFTLTISCLQSEDFATYYCQQYYSYALTFGGGTKVEIK
B24: CA162 (antibody, V domains shown)
VH: QVQLVESGGGLVKPGGSLRLSCAASGFTFSDYYMSWIRQAPGKGLEWVSYISSSSSYTNYADSVKGRFTISRDNAKNSLYLQMNSLRAEDTAVYYCARGRTMFKNYYDSSGYYGYFDYWGQGTLVTVSS
VL: DIQMTQSPSSVSASVGDRVTITCRASQGISSWLAWYQQKPGKAPKLLIYAASSLQSGVPSRFSGSGSGTDFTLTISSLQPEDFATYYCQQANSPLTFGGGTKVEIK
B25: CA145 (antibody, V domains shown)
VH: QVQLVESGGGLVKPGGSLRLSCAASGFTFSDYYMSWIRQAPGKGLEWVSYISSSGSTIYYADSVKGRFTISRDNAKNSLYLQMNSLRAEDTAVYYCARDVLELRWWFDPWGQGTLVTVSS
VL: not shown
B26: CA156 (antibody, V domains shown)
VH: EVQLVESGGGLVKPGGSLRLSCAASGFTFSSYSMNWVRQAPGKGLEWVSSISSSSSYIYYADSVKGRFTISRDNAKNSLYLQMNSLRAEDTAVYYCARDFSGDFWSGYDYWGQGTLVTVSS
VL: not shown

biological target: soluble HLA-E-VL9, HLA-E*01:03 heavy chain refolded with β2-microglobulin and synthetic VL9 peptide (Homo sapiens, HLA-E*01:03, strain)

Does B1 bind?
Result: binds

Does B2 bind?
Result: binds

Does B3 bind?
Result: binds

Does B4 bind?
Result: binds

Does B5 bind?
Result: binds

Does B6 bind?
Result: binds

Does B7 bind?
Result: binds

Does B8 bind?
Result: binds

Does B9 bind?
Result: binds

Does B10 bind?
Result: binds

Does B11 bind?
Result: binds

Does B12 bind?
Result: binds

Does B13 bind?
Result: binds

Does B14 bind?
Result: binds

Does B15 bind?
Result: binds

Does B16 bind?
Result: binds

Does B17 bind?
Result: binds

Does B18 bind?
Result: binds

Does B19 bind?
Result: binds

Does B20 bind?
Result: binds

Does B21 bind?
Result: binds

Does B22 bind?
Result: binds

Does B23 bind?
Result: binds

Does B24 bind?
Result: binds

Does B25 bind?
Result: binds

Does B26 bind?
Result: binds
